Laboratory results reported in paper PMC4001850 (Journal of Alzheimer's disease : JAD, 2011).
Where no end group is shown, it is not given here.

B1: eAβPP_(290-624), His-Patch thioredoxin fusion (52-kDa) (domain or fragment, human, UniProt P05067-4 290-624, looked up)
chain: PTTAASTPDAVDKYLETPGDENEHAHFQKAKERLEAKHRERMSQVMREWEEAERQAKNLPKADKKAVIQHFQEKVESLEQEAANERQQLVETHMARVEAMLNDRRRLALENYITALQAVPPRPRHVFNMLKKYVRAEQKDRQHTLKHFEHVRMVDPKKAAQIRSQVMTHLRVIYERMNQSLSLLYNVPAVAEEIQDEVDELLQKEQNYSDDVLANMISEPRISYGNDALMPSLTETKTTVELLPVNGEFSLDDLQPWHSFGADSVPANTENEVEPVDARPAADRGLTTRPGSGLTNIKTEEISEVKMDAEFRHDSGYEVHHQKLVFFAEDVGSNK

Target: the molecule itself
Test: SEC

Protein	stoichiometry N
B1	~2
LTTRPGSGLTNIKTEEISEVKMDAEFRHDSGYEVHHQKLVFFAEDVGSNK (domain or fragment, human, UniProt P05067-4 575-624, looked up, also: His-Patch thioredoxin fusion (20 kDa), side not given here) [eAβPP_(575-624), His-Patch thioredoxin fusion (20-kDa)]	~2
